The target of experiment [1] is T1, ParF (Salmonella enterica, UniProt Q9KJ83).
T1 construct: full-length, His-tagged (pET-22b(+)), produced in E. coli BL21(DE3); monomer with ADP, dimer and higher-order with ATP
T1 sequence (Q9KJ83 1-206): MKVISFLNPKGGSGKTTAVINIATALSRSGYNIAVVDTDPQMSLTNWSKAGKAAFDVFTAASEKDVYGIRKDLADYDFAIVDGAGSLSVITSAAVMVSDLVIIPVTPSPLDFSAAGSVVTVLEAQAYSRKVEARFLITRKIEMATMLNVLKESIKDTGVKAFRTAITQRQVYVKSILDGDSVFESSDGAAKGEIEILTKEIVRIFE
Description: sedimentation assay of higher-order assembly. The class given is binding. The following applies: 2 mM nucleotide, 5 mM MgCl2, 30 mM Tris-HCl pH 8.0, 100 mM KCl, 30 °C. From the text: sedimentation assay of higher-order assembly on ParF | ATP or non-hydrolyzable ATPγS increased the levels of higher-order assemblies of wild-type ParF

Experiment [2] deals with T1, ParF. Description: fluorescence anisotropy titration. The class given is binding. To be noted: read-out: apparent Kd; 20 mM HEPES, 150 mM NaCl, 1 mM MgCl2, pH 7.0; 0.9 μM labelled compound; possible hydrolysis during measurement. (In general: Fluorescence polarisation rises when a labelled molecule tumbles more slowly, as on binding a larger partner.)
Experiment [3] has as its target wild-type ParF, His-tagged, purified (plasmid TP228 (in Escherichia coli)). The experiment can be described thus: co-sedimentation.
For experiment [4] the target is unchanged.
For experiment [5], the target named is wild-type ParF fused to the T18 or T25 fragment of Bordetella pertussis adenylate cyclase (plasmid TP228 (in Escherichia coli)). The experiment can be described thus: two-hybrid.

This note sets out measurements from PMC7308502, “Genome Segregation by the Venus Flytrap Mechanism: Probing the Interaction Between the ParF ATPase and the ParG Centromere Binding Protein” (Frontiers in Molecular Biosciences, 2020).

Consider `Nc1ncnc2c1ncn2[C@@H]1O[C@H](COP(=O)(O)OP(=O)(O)OP(O)(O)=S)[C@@H](O)[C@H]1O` [ATPγS], for which the “fold increase in pellet fraction” value on ParF [1] is reported as ~ 2 fold.

For the compound `CNc1ccccc1C(=O)O[C@H]1[C@@H](O)[C@H](n2cnc3c(N)ncnc32)O[C@@H]1CO[P@@](=O)(O)O[P@](=O)(O)OP(=O)(O)O` [MANT-ATP], at ParF [2], the Kd was approximately 500 nM.

“wild-type ParF, His-tagged, purified (enzyme)” displayed a percent of ParF in the pellet fraction (with ParG and ATPγS) in experiment [3] of 80%.

“ParG, His-tagged, purified (natural protein)” had a percent of ParG in the pellet fraction (with ATPγS) in experiment [3] of 50%. Moreover, in experiment [4], the fold stimulation of ParF ATPase activity by ParG (ParF 1 μM, ParG 0-20 μM, 5 μM ATP) was found to be 20 fold.

For `Nc1ncnc2c1ncn2[C@@H]1O[C@H](COP(=O)(O)OP(=O)(O)OP(=O)(O)O)[C@@H](O)[C@H]1O` [ATP], at ParF [1], the “fold increase in pellet fraction” value is ~ 2 fold.

Compound “wild-type ParF fused to the T18 or T25 fragment of Bordetella pertussis adenylate cyclase (natural protein)” returned a β-galactosidase units (β-galactosidase units) in experiment [5] of 700.
